Where a chain is given by its changes, count along the chain named.
T1: human BCMA (B cell maturation antigen) (human, UniProt Q02223 1-184)
T1 construct: whole, on cells; also called hBCMA; TNFRSF17
T1 sequence (looked up): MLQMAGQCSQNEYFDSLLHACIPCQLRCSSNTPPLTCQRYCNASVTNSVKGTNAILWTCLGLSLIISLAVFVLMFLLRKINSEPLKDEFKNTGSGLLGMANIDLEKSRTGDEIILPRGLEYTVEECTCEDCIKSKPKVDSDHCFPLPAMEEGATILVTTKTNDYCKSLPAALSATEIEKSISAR

B1: B03 BCMA-specific FN3 domain (designed binder)
chain: MLPAPKNLVVSRITEDSARLSWTAPDAAFDSFPIRYIETLIWGEAIWLDVPGSERSYDLTGLKPGTEYTVVIDGVKGGGRSQPLVATFTT
notes: Detected with an anti-His mAb, so the protein tested carried a His tag
B2: A08 BCMA-specific FN3 domain (designed binder)
chain: B1 chain with T69A, D73T, G79R, R80F, Q82S, T87S
notes: as for B1
B3: F11 BCMA-specific FN3 domain (designed binder)
chain: B1 chain with I13V, T69V, G79D, R80H, Q82K
notes: as for B1
B4: D10 BCMA-specific FN3 domain (designed binder)
chain: B1 chain with D49Y, T87S
notes: as for B1
B5: C08 BCMA-specific FN3 domain (designed binder)
chain: B1 chain with D49Y, D73S, G79E, R80S, Q82Y, V85I, T87A
notes: as for B1
B6: G11 BCMA-specific FN3 domain (designed binder)
chain: MLPAPKNLVVSRITEDSARLSWTAPDAAFDSFWIRYVERLVWGEAIHLHVPGSERSYDLTGLKPGTEYVVVISGVKGGWESTPLVAPFTT
notes: as for B1
B7: F01 BCMA-specific FN3 domain (designed binder)
chain: MLPAPKNLVVSRVTEDSARLSWTAPDAAFDSFIIVYRENIETGEAIVLTVPGSERSYDLTGLKPGTEYYVQIAGVKGGNISFPLSAIFTT
notes: as for B1
B8: G10 BCMA-specific FN3 domain (designed binder)
chain: B7 chain with T23I
notes: as for B1
B9: D08 BCMA-specific FN3 domain (designed binder)
chain: B7 chain with R12H, G61D
notes: as for B1
B10: E09 BCMA-specific FN3 domain (designed binder)
chain: MLPAPKNLVVSRVTEDSARLSWTAPDAAFDSFRIRYVEVIAWGEAIWLVVPGSERSYDLTGLKPGTEYVVVIDGVKGGKTSIPLIAHFTT
notes: as for B1
B11: A12 BCMA-specific FN3 domain (designed binder)
chain: MLPAPKNLVVSRITEDSARLSWTAPDAAFDSFTIKYIERATWGEAIWLNVPGSERSYDLTGLKPGTEYVVLINGVKGGPESWPLIAHFTT
notes: as for B1
B12: E02 BCMA-specific FN3 domain (designed binder)
chain: MLPAPKNLVVSRVTEDSARLSWTAPDAAFDSFVIVYSEPDVCGEAIVLTVPGSERSYDLTGLKPGTEYWVRIAGVKGGDFSRPLSAIFTT
notes: as for B1

Molecular target: T1, human BCMA (B cell maturation antigen)
Assay: flow cytometry, FN3 domain titration on HEK293F cells transiently expressing human BCMA, anti-His Alexa-488 detection, PRISM one-site specific binding fit
Design: Bmax: unit not given here
Protocol: 50 uL secondary antibody in FACS buffer was added to the wells. Anti-His mAb was added at a 1/100 dilution to all of the wells except for the FACS buffer only negative control wells. The plates were incubated on ice for 1 hr. Afterwards, cells were collected and combined from two wells from all four plates to check cell count and viability using Trypan blue on the Vi-Cell system. The cell count was about 67,500/well at 96.6% viability. The cell count of the control cells that were kept on ice for comparison was 1×10⁶/mL at 95.1% viability.
After 1 hr of staining, the plates were spun at 1200 rpm for 5 min at 4° C. to pellet the cells. Buffer was discarded by inverting the plates, and 100 uL FACS buffer were added to the wells. The FACS buffer wash was repeated two more times. The plates were spun at 1200 rpm for 5 min at 4° C. to pellet the cells, and buffer was discarded by inverting the plates.
Cells were resuspended in 30 uL Intellicyt buffer (FACS buffer, 0.1% Pluronic Acid, 1 mM EDTA, SytoX Red Live/Dead Stain at a 1:1000 dilution) and mixed gently by vortexing the plates. The plates were kept on ice and read on an Intellicyt plate reader. Cells were gated in the following order: (a) cells, (b) single cells, (c) viable cells. The Geometric Mean of Alexa 488 channel was calculated, and the percentage of viable single cells was calculated.

Binder	Bmax	Kd
B1	60900	8.7 nM
B2	101000	3000 nM
B3	58200	4.2 nM
B4	57800	4.9 nM
B5	57900	23 nM
B6	60700	1.6 nM
B7	51600	520 nM
B8	72600	76 nM
B9	61200	230 nM
B10	73600	130 nM
B11	51400	22 nM
B12	56700	6.5 nM
